What was measured:
[1] = molecular target: T1, human C4b (human) (UniProt P0C0L5)
T1 sequence: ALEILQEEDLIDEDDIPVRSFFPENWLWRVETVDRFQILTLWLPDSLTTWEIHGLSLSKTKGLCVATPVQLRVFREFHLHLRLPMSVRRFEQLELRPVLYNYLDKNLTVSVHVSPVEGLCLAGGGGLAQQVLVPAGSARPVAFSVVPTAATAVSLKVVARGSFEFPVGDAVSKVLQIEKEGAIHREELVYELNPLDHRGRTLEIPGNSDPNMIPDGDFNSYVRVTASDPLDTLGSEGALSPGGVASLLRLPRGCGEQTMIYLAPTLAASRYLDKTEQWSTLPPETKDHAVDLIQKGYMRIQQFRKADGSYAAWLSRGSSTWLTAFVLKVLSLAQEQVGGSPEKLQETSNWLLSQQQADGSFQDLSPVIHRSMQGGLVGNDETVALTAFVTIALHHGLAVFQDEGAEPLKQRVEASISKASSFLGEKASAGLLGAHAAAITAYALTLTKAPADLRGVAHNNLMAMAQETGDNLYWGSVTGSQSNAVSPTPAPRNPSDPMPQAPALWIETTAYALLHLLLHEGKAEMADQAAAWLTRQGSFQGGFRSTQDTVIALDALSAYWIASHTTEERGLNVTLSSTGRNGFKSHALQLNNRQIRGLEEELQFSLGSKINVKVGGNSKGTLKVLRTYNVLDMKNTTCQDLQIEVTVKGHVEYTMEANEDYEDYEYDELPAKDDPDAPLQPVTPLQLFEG

[2] = molecular target: soluble human C3b (human) (UniProt P01024)

Row | C4b Screen Ref Fold (fold vs CFI-HSA wild type) [1] | iC3b Screen Ref Fold (fold vs CFI-HSA wild type) [2] | C4b Screen Ref Fold (fold of CFI-HSA wild type) [1] | iC3b Screen Ref Fold (fold of CFI-HSA wild type) [2] | Substance | also measured
1 | 0.96 | 0.56 |  |  | CFI-HSA R365T (enzyme) | 
2 | 0.15 | 0.17 |  |  | CFI-HSA variant K504G (enzyme) | 
3 | 0.14 | 1.01 |  |  | CFI-HSA variant S250A; D425R (enzyme) | 
4 | 0.24 | 0.25 |  |  | CFI-HSA variant E530D (enzyme) | 
5 | 0 | 0.02 |  |  | CFI-HSA variant W381K (enzyme) | 
6 | 0.29 | 0.89 |  |  | CFI-HSA K424V (enzyme) | 
7 |  |  | 0.9 | 0.54 | CFI-HSA variant P558S; F559L (enzyme) | 
8 | 0.38 | 0.36 |  |  | CFI-HSA variant I322V; V323I; R327P (enzyme) | 
9 | 0.01 | 0 |  |  | CFI-HSA variant D506E (enzyme) | 
10 |  |  | 1.41 | 0.85 | CFI-HSA variant V565I; P558S (enzyme) | 
11 | 1.87 | 0.05 |  |  | CFI-HSA R557N (enzyme) | 
12 |  |  | 2.54 | 2.07 | CFI-HSA variant Y408L; N531G; E416A (enzyme) | 
13 | 2.48 | 0.16 |  |  | CFI-HSA R557M (enzyme) | 
14 | 4.1 | 1.08 |  |  | CFI-HSA Y408L; E457G; N531G; D425R; E530Y (enzyme) | 
15 | 5.7 | 1.83 |  |  | CFI-HSA E457G; N531G; E461Q; R462K; F464Y; E530Y (enzyme) | 
16 | 0.32 | 0.97 |  |  | CFI-HSA K424R (enzyme) | 
17 | 1.07 | 1.93 |  |  | CFI-HSA D459G (enzyme) | 
18 | 1.08 | 1.48 |  |  | CFI-HSA D549N (enzyme) | 
19 | 1.85 | 0.3 |  |  | CFI-HSA Y408L; N531G; ΔC-term (Δ558-PFISQYNV (SEQ ID NO: 14)-565) (enzyme) | 
20 |  |  | 1.37 | 0.67 | CFI-HSA variant Y553F (enzyme) | 
21 | 0.91 | 1.23 |  |  | CFI-HSA A342G (enzyme) | 

Row | C4b Screen Ref Fold (fold vs CFI-HSA wild type) [1] | iC3b Screen Ref Fold (fold vs CFI-HSA wild type) [2] | C4b Screen Ref Fold (fold of CFI-HSA wild type) [1] | iC3b Screen Ref Fold (fold of CFI-HSA wild type) [2] | Substance | also measured
22 |  |  | 1.47 | 1.2 | CFI-HSA variant Y408L; N531G; P535G; K534Q (enzyme) | 
23 | 0.5 | 1.48 |  |  | CFI-HSA K424N (enzyme) | 
24 | 0.23 | 0.45 |  |  | CFI-HSA D549M (enzyme) | 
25 | 3.77 | 0.77 |  |  | CFI-HSA Y408L; N531G; R557A (enzyme) | 
26 | 2.36 | 0.12 |  |  | CFI-HSA R557W (enzyme) | 
27 |  |  | 1.97 | 1.32 | CFI-HSA variant Y553H; V565I (enzyme) | 
28 | 0.03 | 0.13 |  |  | CFI-HSA K424T (enzyme) | 
29 | 0.21 | 0.03 |  |  | (HSA-GS)-V311-V565 - G(10) - K1-G310; C309S; C435S (enzyme) | 
30 | 3.22 | 1.29 |  |  | CFI-HSA Y408L; E457G; E461Q; R462K; N531G; R557A (enzyme) | 
31 |  |  | 1.87 | 1.43 | CFI-HSA variant E457G; P535G; N422K (enzyme) | 
32 | 0.23 | 1.08 |  |  | CFI-HSA K424E (enzyme) | 
33 |  |  | 0.89 | 0.97 | CFI-HSA variant Y408L; N531G; P535G (enzyme) | 
34 | -0.02 | 0.01 |  |  | CFI-HSA variant K504P (enzyme) | 
35 |  |  | 1.26 | 0.84 | CFI-HSA variant Y553F; P558S (enzyme) | 
36 | 0.25 | 1.52 |  |  | CFI-HSA K424W (enzyme) | 
37 | 0.25 | 0.68 |  |  | CFI-HSA D549W (enzyme) | 
38 |  |  | 0.6 | 1.27 | CFI-HSA variant Y408L; N422K (enzyme) | 
39 |  |  | 0.35 | 0.24 | CFI-HSA variant P535G; K534Q (enzyme) | 
40 |  |  |  |  | CFI-HSA variant D425K; E457G; E461Q; N531G; R557A (enzyme) | C4b Screen Ref Fold (fold relative to CFI-HSA wild type) [1]: 2.8; iC3b Screen Ref Fold (fold relative to CFI-HSA wild type) [2]: 0.08
41 | 0.37 | 0.57 |  |  | CFI-HSA variant H370A (enzyme) | 
42 |  |  | 1.86 | 0.68 | CFI-HSA variant G556P; P558G (enzyme) | 

Row | C4b Screen Ref Fold (fold vs CFI-HSA wild type) [1] | iC3b Screen Ref Fold (fold vs CFI-HSA wild type) [2] | C4b Screen Ref Fold (fold of CFI-HSA wild type) [1] | iC3b Screen Ref Fold (fold of CFI-HSA wild type) [2] | Substance | also measured
43 | 1.05 | 1.95 |  |  | CFI-HSA Y408L; D425R; E530Y (enzyme) | 
44 | 0.09 | 0.16 |  |  | CFI-HSA S527G (enzyme) | 
45 | 0.84 | 0.64 |  |  | CFI-HSA variant A361G (enzyme) | 
46 | 0.02 | 0.03 |  |  | CFI-HSA variant Δ(K1-P305); N531G (enzyme) | 
47 | 0.01 | -0.05 |  |  | CFI-HSA W528G (enzyme) | 
48 | 2.87 | 0.01 |  |  | CFI-HSA E457G; N531G; E461Q; R462K; F464Y; E530Y; GGSSGG (SEQ ID NO: 6); CR1(ccp15-17) (from UniProt P17927) (enzyme) | 
49 | 0.12 | 0.04 |  |  | CFI-HSA variant 514-MDANNVT (SEQ ID NO: 13)-520 --> NG (enzyme) | 
50 | 5.37 | 0.78 |  |  | CFI-HSA E457G; N531G; D425R; E530Y (enzyme) | 
51 | 0.51 | 0.38 |  |  | CFI-HSA Y553E (enzyme) | 
52 |  |  | 5.42 | -0.01 | CFI-HSA variant E457G; E461Q; R462K; F464Y; N531G; GGSSGG (SEQ ID NO: 6); CR1(ccp15-17) (from UniProt P17927) (enzyme) | 
53 |  |  | 0.7 | 1.43 | CFI-HSA variant K14E; E487K (enzyme) | 
54 |  |  | 3.01 | 0.03 | CFI-HSA variant Y408L; P535G; WT; GGSSGG (SEQ ID NO: 6); CR1(ccp15-17) (from UniProt P17927) (enzyme) | 
55 |  |  | 0.09 | 0.52 | CFI-HSA variant P535G; N422K (enzyme) | 
56 | 0.03 | -0.01 |  |  | CFI-HSA V526G (enzyme) | 
57 |  |  | 6.11 | 0.1 | CFI-HSA variant E457G; WT; GGSSGG (SEQ ID NO: 6); CR1(ccp15-17) (from UniProt P17927) (enzyme) | 
58 |  |  | 1.56 | 0.87 | CFI-HSA variant E457G; N531G; P535G; P558S (enzyme) | 
59 | 0.13 | 0.52 |  |  | CFI-HSA H370G (enzyme) | 
60 |  |  | 2.33 | 0.18 | CFI-HSA variant S552G; Y553H; F559L; P558S (enzyme) | 
61 | 0.03 | 0.37 |  |  | CFI-HSA F537G (enzyme) | 
62 |  |  |  |  | CFI-HSA variant Y403F; D425K; E457G; E461Q; K504Y; N531G (enzyme) | C4b Screen Ref Fold (fold relative to CFI-HSA wild type) [1]: 3.11; iC3b Screen Ref Fold (fold relative to CFI-HSA wild type) [2]: 0.03
63 | 3.57 | 0.5 |  |  | CFI-HSA N531G; E457G; E461Q; ΔC-term (Δ558-PFISQYNV (SEQ ID NO: 14)-565) (enzyme) | 

Source: patent publication US20230038638A1, “COMPLEMENT FACTOR I-RELATED COMPOSITIONS AND METHODS” (published 2023)
